Assay results taken from patent publication US7063965 (Regeneron, dated 2006).

Tests used:
[1] = target: TIE-2 receptor on ABAE (Adult Bovine Arterial Endothelial) cells (bovine, UniProt Q06807 23-1125); experiment: cell-based or functional assay
[2] = target: T1, rat TIE-2 receptorbody (entire extracellular portion of the rat TIE-2 receptor fused to human IgG1 Fc) (rat; human, UniProt A0ABK0L6J5 19-740); experiment: SPR (BIAcore), >50x concentrated conditioned medium over immobilised TIE-2 RB
T1 construct: extracellular domain; also called TIE-2 RB; r TIE-2 ecto/h IgG1 Fc; not shown: human immunoglobulin gamma-1 constant region (IgG1 Fc), from the hinge region to the carboxy-terminus
Method: Purified TIE-2 RB was covalently coupled through primary amines to the carboxymethyl dextran layer of a CM5 research grade sensor chip (Pharmacia Biosensor; Piscataway, N.J.). The sensor chip surface was activated using a mixture of N-hydroxysuccinimide (NHS) and N-ethyl-N'-(3-dimethylaminopropyl)carbodiimide (EDC), followed by immobilization of TIE-2 RB (25 µg/mL, pH 4.5) and deactivation of unreacted sites with 1.0 M ethanolamine (pH 8.5). A negative control surface of the EHK-1 receptorbody was prepared in a similar manner.
The running buffer used in the system was HBS (10 mM Hepes, 3.4 mM EDTA, 150 mM NaCl, 0.005% P20 surfactant, pH 7.4). […] Aliquots of 40 µL were injected across the immobilized surface (either TIE-2 or EHK-1) at a flow rate of 5 µL/min and the receptor binding was monitored for 8 min. The binding activity (resonance units, RU) was measured as the difference between a baseline value determined 30 s prior to the sample injection and a measurement taken at 30 s post-injection. […]
The instrument noise level is 20 RU; therefore, any binding activity with a signal above 20 RU may be interpreted as a real interaction with the receptor. […] For the same samples assayed on a EHK-1 RB immobilized surface, the measured activities were less than 35 RU. […]

[3] = target: T2, EHK-1 receptorbody (rEHK-1 ecto/hIgG1 Fc) (rat; human, UniProt P54757 27-575); experiment: SPR (BIAcore), conditioned medium preincubated with soluble receptorbody before injection over immobilised TIE-2 RB
T2 construct: extracellular domain; also called EHK-1 RB; soluble EHK-1 RB
T2 sequence (P54757 27-575): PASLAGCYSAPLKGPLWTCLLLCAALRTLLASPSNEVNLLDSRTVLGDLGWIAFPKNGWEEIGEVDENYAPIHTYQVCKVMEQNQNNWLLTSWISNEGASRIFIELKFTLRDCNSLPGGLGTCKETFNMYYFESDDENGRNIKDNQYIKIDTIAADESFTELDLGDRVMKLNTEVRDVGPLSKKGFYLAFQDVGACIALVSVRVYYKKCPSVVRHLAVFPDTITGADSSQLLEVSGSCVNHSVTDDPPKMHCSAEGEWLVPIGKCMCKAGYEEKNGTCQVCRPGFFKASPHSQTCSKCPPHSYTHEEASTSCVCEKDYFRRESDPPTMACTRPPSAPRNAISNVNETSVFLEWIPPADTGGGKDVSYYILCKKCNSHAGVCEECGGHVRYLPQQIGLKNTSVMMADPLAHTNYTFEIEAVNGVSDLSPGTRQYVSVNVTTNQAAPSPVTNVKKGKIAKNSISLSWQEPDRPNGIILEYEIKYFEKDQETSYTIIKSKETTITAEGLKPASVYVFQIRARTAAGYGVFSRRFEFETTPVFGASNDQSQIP

Chain of TIE-2 receptor on ABAE (Adult Bovine Arterial Endothelial) cells (Q06807 23-1125): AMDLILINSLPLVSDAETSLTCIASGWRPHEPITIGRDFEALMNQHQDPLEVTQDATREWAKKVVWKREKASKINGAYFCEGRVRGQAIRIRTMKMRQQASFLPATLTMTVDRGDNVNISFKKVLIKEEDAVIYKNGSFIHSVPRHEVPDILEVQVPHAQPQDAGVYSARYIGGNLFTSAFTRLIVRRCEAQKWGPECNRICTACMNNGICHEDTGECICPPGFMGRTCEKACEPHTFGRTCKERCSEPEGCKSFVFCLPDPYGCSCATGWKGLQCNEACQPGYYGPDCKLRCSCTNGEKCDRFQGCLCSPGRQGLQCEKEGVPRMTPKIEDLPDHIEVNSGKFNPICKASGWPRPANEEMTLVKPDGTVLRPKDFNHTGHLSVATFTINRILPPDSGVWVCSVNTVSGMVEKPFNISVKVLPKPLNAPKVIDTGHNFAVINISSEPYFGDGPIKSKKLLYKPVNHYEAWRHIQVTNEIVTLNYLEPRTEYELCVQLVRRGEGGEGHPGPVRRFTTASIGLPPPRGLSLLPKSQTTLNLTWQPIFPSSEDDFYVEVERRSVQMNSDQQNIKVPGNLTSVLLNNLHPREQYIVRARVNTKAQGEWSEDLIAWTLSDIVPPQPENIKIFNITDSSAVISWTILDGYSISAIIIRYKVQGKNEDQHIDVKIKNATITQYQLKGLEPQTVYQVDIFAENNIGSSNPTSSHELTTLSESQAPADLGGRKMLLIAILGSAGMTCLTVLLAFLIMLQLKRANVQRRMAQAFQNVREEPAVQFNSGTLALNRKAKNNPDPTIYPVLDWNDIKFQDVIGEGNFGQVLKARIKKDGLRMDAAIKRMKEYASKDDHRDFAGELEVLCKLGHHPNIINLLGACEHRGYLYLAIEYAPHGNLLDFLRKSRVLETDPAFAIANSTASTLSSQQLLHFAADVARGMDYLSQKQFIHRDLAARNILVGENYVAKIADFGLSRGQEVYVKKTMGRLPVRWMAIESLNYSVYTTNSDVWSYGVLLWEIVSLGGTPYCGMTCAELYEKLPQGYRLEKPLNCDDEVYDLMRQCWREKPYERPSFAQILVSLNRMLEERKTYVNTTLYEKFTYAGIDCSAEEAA

B1: TIE-2 ligand in C2C12-ras conditioned medium (ligand, mouse, UniProt O08538 20-498, looked up)
chain: SNQRRNPENGGRRYNRIQHGQCAYTFILPEHDGNCRESATEQYNTNALQRDAPHVEPDFSSQKLQHLEHVMENYTQWLQKLENYIVENMKSEMAQIQQNAVQNHTATMLEIGTSLLSQTAEQTRKLTDVETQVLNQTSRLEIQLLENSLSTYKLEKQLLQQTNEILKIHEKNSLLEHKILEMEGKHKEELDTLKEEKENLQGLVSRQTFIIQELEKQLSRATNNNSILQKQQLELMDTVHNLISLCTKEGVLLKGGKREEEKPFRDCADVYQAGFNKSGIYTIYFNNMPEPKKVFCNMDVNGGGWTVIQHREDGSLDFQRGWKEYKMGFGNPSGEYWLGNEFIFAITSQRQYMLRIELMDWEGNRAYSQYDRFHIGNEKQNYRLYLKGHTGTAGKQSSLILHGADFSTKDADNDNCMCKCALMLTGGWWFDACGPSNLNGMFYTAGQNHGKLNGIKWHYFKGPSYSLRSTTMMIRPLDF
notes: Unpurified activity in concentrated conditioned medium; also called C2C12-ras 10xCCM
[1]
  TIE-2 tyrosine phosphorylation in ABAE cells (immunoprecipitation and Western blot): 100 fold
[2]
  fold enhancement over background of the TIE-2 specific binding signal: 4 fold
[3]
  binding result: no binding (tested: excess)
